Results from paper PMC7247208, “A cell suspension based uptake method to study high affinity glucosinolate transporters” (Plant Methods, 2020).

B1: AtGTR1 (Arabidopsis thaliana) (protein)
chain: MKSRVILNHRDRRDKNHNNNNTNHYTQVDTMERKPLEVEPSTTTTNTDVVDSFEEEQRKIVYRGWKVMPFIIGNETFEKLGIIGTLSNLLVYLTSVFNLKSYTAATIINAFSGTINFGTFIAAFLCDTYFGRYKTLSVAVIACFLGSFVILLTAAIPSLHPVACGNKISCEGPSVGQILFLLMGLGFLVVGAGGIRPCNLAFGADQFNPKSESGKKGINSFFNWYFFTFTFAQIISLTAVVYIQSNVSWTIGLIIPVALMFLACVIFFAGDRLYVKVKASGSPLAGIARVIAAAIKKRGLKPVKQPWVNLYNHIPSNYANTTLKYTDQFRFLDKAAIMTPEEKLNSDGTASDPWKLCTLQQVEEVKCIVRVIPIWFASTIYYLAITIQMTYPVFQALQSDRRLGSGGFRIPAATYVVFLMTGMTVFIIFYDRVLVPSLRRVTGLETGISLLQRIGAGFTFAIMSLLVSGFIEERRRNFALTKPTLGMAPRTGEISSMSALWLIPQLTLAGIAEAFAAIGQMEFYYKQFPENMKSFAGSIFYVGAGVSSYLASFLISTVHRTTAHSPSGNWLAEDLNKAKLDYFYFMLTGLMVVNMAYFLLMARWYRYKGGNDEDITEIETNEEETKQQQLQDKNSV
notes: full-length CDS from Col-0 leaf cDNA, untagged, pEarleyGate100 (CaMV35S), stably expressed in cotton CCL-1 cells; C-terminal YFP fusion only for localization
B2: AtGTR2 (Arabidopsis thaliana) (protein)
chain: MERKPLELESTDNHQNPSSAVYGGSVTAVDSVEEDVQNQKKVVYRGWKVMPFIIGNETFEKLGIIGTLSNLLVYLTAVFNLKSITAATIINAFSGTINFGTFVAAFLCDTYFGRYKTLSVAVIACFLGSFVILLTAAVPQLHPAACGTAADSICNGPSGGQIAFLLMGLGFLVVGAGGIRPCNLAFGADQFNPKSESGKRGIDSFFNWYFFTFTFAQILSLTLVVYVQSNVSWTIGLTIPAVLMFLACLIFFAGDKLYVKIKASGSPLAGIAQVIAVAIKKRGLKPAKQPWLNLYNYYPPKYANSKLKYTDQFRFLDKAAILTPEDKLQPDGKPADPWKLCTMQQVEEVKCIVRVLPIWFASSIYYLTITQQMTYPVFQALQSDRRLGSGGFVIPAATYVVFLMTGMTVFIVVYDRVLVPTMRRITGLDTGITLLQRIGTGIFFATASLVVAGFVEERRRTFALTKPTLGMAPRKGEISSMSAMWLIPQLSLAGVAEAFAAIGQMEFYYKQFPENMRSFAGSIFYVGGGVSSYLGSFLIATVHRTTQNSSGGNWLAEDLNKGRLDLFYFMIAGILAVNFAYFLVMSRWYRYKGSDDEVTTYETNENIIKQQDKNVA
notes: as for B1

Key:
Settings in all cases: pH 5, MSOT3 without nitrate salts, 1 h uptake, transport
[1] = substrate: C=CCC/C(=N\OS(=O)(=O)O)S[C@@H]1O[C@H](CO)[C@@H](O)[C@H](O)[C@H]1O; test: uptake into CCL-1 cotton suspension cells, HPLC of desulfoglucosinolates, Michaelis-Menten fit; assay type: cell-based, Arabidopsis thaliana
[2] = substrate: C=CC/C(=N/OS(=O)(=O)O)S[C@@H]1O[C@H](CO)[C@@H](O)[C@H](O)[C@H]1O; test: as above; assay type: cell-based, Arabidopsis thaliana
[3] = substrate: O=S(=O)(O)O/N=C(/Cc1ccc(O)cc1)S[C@@H]1O[C@H](CO)[C@@H](O)[C@H](O)[C@H]1O; test: cells, lysate or membranes

Row | Protein | Km [1] [µM] | Vmax [1] [µmol/min/mg] | Km [2] [µM] | Vmax [2] [µmol/min/mg] | Km [3] [µM] | Vmax [3] [µmol/min/mg]
1 | B1 | 279.1 ± 109 | 3.4e-06 | 117.9 ± 44 | 5e-07 | 104.5 ± 56 | 5e-07
2 | B2 | 153.3 ± 59 | 2.9e-06 | 436.7 ± 154 | 4.6e-06 | 166.7 ± 40 | 1.2e-06
